{"source": "paper PMC10415149", "about": "“The role of catalytic and regulatory domains of human PrimPol in DNA binding and synthesis”", "binders": {"B1": {"name": "p-p-p-12/Cy5-Acctg24 (mixed)", "DNA 1": "AAAAAAAAAACCTGAAAAAAAAAA", "DNA 2": "AGGTTTTTTTTT", "modifications": "primer 5'-triphosphate; primer nt 1 is ribo-A, rest DNA"}, "B2": {"name": "Acctg55 (ssDNA)", "DNA": "AAAAAAAAAAAAAAAAAAAAAAAAAAAAAAAAAAAAAAAAACCTGAAAAAAAAAA"}, "B3": {"name": "Template-55/Primer-18 (dsDNA)", "DNA 1": "GACTACATTTCATCTGGCTTGGGCTTCATCGTTGTCGCAGACCTGGTGGATACCG", "DNA 2": "CGGTATCCACCAGGTCTG"}}, "key": {"[1]": {"target": "T1, PrimPol1-475 (RBM deleted) (Homo sapiens, UniProt Q96LW4 1-475)", "T1 sequence": "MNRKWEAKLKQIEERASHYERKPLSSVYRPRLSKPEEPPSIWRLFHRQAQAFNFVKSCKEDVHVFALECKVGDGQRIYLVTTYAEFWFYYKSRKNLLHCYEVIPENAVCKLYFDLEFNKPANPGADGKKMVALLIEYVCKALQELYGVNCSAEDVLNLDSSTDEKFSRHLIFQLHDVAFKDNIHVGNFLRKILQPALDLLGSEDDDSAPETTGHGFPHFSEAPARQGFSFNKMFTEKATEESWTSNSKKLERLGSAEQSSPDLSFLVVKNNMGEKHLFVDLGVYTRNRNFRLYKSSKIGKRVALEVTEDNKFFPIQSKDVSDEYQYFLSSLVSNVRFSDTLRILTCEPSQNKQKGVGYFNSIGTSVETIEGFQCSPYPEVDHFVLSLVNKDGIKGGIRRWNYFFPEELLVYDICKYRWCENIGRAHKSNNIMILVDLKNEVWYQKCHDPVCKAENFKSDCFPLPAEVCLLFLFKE", "assay": "EMSA; 1 mM Mn2+; EMSA: 40 mM HEPES pH 7.0, 50 mM KCl, 1 mM DTT, 5% glycerol, 0.1 mg/ml BSA, 1 mM MnCl2, 300 nM DNA, 24 C 20 min then ice (RPA assays: 50 nM DNA, 25 nM RPA, 8 C); 5% native PAGE, 0.5x Tris-glycine pH 8.3, 4 C", "details": "protein: recombinant; tags: N-terminal SUMO-HIS10; label: Cy5 at 5' of template; template 5' overhang 1 nt, 3' overhang 11 nt"}, "PrimPol WT [2]": {"target": "T2, PrimPol WT (Homo sapiens, UniProt Q96LW4 1-560)", "T2 sequence": "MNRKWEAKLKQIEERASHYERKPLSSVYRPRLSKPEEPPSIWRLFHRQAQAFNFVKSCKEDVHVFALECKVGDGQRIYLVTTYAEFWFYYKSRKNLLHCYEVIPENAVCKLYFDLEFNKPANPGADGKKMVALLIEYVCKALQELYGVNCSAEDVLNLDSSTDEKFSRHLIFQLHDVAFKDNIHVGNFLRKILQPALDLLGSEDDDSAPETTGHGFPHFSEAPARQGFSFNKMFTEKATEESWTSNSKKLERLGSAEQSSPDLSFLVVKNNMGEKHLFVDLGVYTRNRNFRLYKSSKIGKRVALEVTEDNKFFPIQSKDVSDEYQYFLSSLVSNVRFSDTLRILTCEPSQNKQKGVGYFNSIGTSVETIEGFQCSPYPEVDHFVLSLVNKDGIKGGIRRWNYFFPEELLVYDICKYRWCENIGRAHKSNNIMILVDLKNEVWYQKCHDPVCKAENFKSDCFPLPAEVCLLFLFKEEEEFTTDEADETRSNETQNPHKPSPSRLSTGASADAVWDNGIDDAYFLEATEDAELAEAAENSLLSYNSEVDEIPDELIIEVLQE", "assay": "EMSA; 1 mM Mn2+; EMSA: 40 mM HEPES pH 7.0, 50 mM KCl, 1 mM DTT, 5% glycerol, 0.1 mg/ml BSA, 1 mM MnCl2, 300 nM DNA, 24 C 20 min then ice (RPA assays: 50 nM DNA, 25 nM RPA, 8 C); 5% native PAGE, 0.5x Tris-glycine pH 8.3, 4 C", "details": "protein: recombinant; tags: N-terminal SUMO-HIS10; label: Cy5 at 5' of template; template 5' overhang 1 nt, 3' overhang 11 nt"}, "[3]": {"target": "T3, PrimPol1-363 (NTD);PrimPol363-560 (CTD) (Homo sapiens;Homo sapiens, UniProt Q96LW4;Q96LW4 1-363;363-560, |)", "T3 sequence 1": "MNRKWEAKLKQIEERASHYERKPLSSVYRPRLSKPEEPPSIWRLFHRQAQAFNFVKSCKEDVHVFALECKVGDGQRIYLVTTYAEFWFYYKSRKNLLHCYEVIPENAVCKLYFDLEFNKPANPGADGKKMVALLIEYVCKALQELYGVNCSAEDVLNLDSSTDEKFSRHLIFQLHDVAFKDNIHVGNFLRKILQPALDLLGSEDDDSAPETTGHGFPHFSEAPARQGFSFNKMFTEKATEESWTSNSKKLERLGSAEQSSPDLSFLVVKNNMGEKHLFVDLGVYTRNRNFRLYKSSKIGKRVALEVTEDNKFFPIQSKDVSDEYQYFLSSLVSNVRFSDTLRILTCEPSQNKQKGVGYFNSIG", "T3 sequence 2": "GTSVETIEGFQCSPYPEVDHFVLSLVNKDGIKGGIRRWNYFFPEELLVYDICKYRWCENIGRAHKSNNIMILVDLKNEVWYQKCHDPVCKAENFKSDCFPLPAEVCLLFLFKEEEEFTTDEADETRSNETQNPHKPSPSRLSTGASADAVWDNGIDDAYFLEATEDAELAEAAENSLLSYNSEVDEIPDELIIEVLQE", "assay": "EMSA; 1 mM Mn2+; separate NTD and CTD mixed; EMSA: 40 mM HEPES pH 7.0, 50 mM KCl, 1 mM DTT, 5% glycerol, 0.1 mg/ml BSA, 1 mM MnCl2, 300 nM DNA, 24 C 20 min then ice (RPA assays: 50 nM DNA, 25 nM RPA, 8 C); 5% native PAGE, 0.5x Tris-glycine pH 8.3, 4 C", "details": "protein: recombinant;recombinant, tags: N-terminal SUMO-HIS10;N-terminal SUMO-HIS10, copies: 1;1"}, "PrimPol363-560 (CTD)": {"target": "T4, PrimPol363-560 (CTD) (Homo sapiens, UniProt Q96LW4 363-560)", "T4 sequence": "T3 sequence 2", "assay": "EMSA; 1 mM Mn2+, 1-3 uM protein; EMSA: 40 mM HEPES pH 7.0, 50 mM KCl, 1 mM DTT, 5% glycerol, 0.1 mg/ml BSA, 1 mM MnCl2, 300 nM DNA, 24 C 20 min then ice (RPA assays: 50 nM DNA, 25 nM RPA, 8 C); 5% native PAGE, 0.5x Tris-glycine pH 8.3, 4 C", "details": "protein: recombinant; tags: N-terminal SUMO-HIS10; label: 5' Cy5"}, "PrimPol1-363 (NTD)": {"target": "T5, PrimPol1-363 (NTD) (Homo sapiens, UniProt Q96LW4 1-363)", "T5 sequence": "T3 sequence 1", "assay": "EMSA; 1 mM Mn2+, 1-3 uM protein; EMSA: 40 mM HEPES pH 7.0, 50 mM KCl, 1 mM DTT, 5% glycerol, 0.1 mg/ml BSA, 1 mM MnCl2, 300 nM DNA, 24 C 20 min then ice (RPA assays: 50 nM DNA, 25 nM RPA, 8 C); 5% native PAGE, 0.5x Tris-glycine pH 8.3, 4 C", "details": "protein: recombinant; tags: N-terminal SUMO-HIS10; label: 5' Cy5"}, "[4]": {"target": "T1, PrimPol1-475 (RBM deleted)", "assay": "EMSA; 1 mM Mn2+, 1 mM ATP, 200 uM dNTPs, 8 C; EMSA: 40 mM HEPES pH 7.0, 50 mM KCl, 1 mM DTT, 5% glycerol, 0.1 mg/ml BSA, 1 mM MnCl2, 300 nM DNA, 24 C 20 min then ice (RPA assays: 50 nM DNA, 25 nM RPA, 8 C); 5% native PAGE, 0.5x Tris-glycine pH 8.3, 4 C", "details": "protein: recombinant; tags: N-terminal SUMO-HIS10; label: 32P"}, "PrimPol WT [5]": {"target": "T2, PrimPol WT", "assay": "EMSA; 1 mM Mn2+, 1 mM ATP, 200 uM dNTPs, 8 C; EMSA: 40 mM HEPES pH 7.0, 50 mM KCl, 1 mM DTT, 5% glycerol, 0.1 mg/ml BSA, 1 mM MnCl2, 300 nM DNA, 24 C 20 min then ice (RPA assays: 50 nM DNA, 25 nM RPA, 8 C); 5% native PAGE, 0.5x Tris-glycine pH 8.3, 4 C", "details": "protein: recombinant; tags: N-terminal SUMO-HIS10; label: 32P"}, "PrimPol WT;RPA": {"target": "PrimPol WT;RPA (Homo sapiens;Homo sapiens, UniProt Q96LW4;P27694;P15927;P35244 1-560;1-616;1-270;1-121, |)", "sequence (P27694 whole entry, chain 2 of 3)": "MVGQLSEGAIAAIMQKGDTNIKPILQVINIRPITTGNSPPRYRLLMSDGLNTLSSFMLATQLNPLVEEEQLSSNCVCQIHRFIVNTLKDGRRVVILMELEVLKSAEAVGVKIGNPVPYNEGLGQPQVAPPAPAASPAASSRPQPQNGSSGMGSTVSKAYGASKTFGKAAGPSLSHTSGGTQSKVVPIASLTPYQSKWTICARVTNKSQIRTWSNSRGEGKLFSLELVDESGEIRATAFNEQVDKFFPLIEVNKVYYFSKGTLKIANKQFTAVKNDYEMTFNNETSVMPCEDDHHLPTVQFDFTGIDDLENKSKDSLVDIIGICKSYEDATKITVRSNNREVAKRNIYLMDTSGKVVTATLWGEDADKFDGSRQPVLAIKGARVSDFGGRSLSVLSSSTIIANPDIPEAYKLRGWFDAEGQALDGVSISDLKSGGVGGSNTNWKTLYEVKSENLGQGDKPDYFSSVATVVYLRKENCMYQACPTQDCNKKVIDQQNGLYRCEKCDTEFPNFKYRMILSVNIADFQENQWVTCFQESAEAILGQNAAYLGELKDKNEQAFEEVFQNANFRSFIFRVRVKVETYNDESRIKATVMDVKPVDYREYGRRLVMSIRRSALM", "sequence (P15927 whole entry, chain 3 of 3)": "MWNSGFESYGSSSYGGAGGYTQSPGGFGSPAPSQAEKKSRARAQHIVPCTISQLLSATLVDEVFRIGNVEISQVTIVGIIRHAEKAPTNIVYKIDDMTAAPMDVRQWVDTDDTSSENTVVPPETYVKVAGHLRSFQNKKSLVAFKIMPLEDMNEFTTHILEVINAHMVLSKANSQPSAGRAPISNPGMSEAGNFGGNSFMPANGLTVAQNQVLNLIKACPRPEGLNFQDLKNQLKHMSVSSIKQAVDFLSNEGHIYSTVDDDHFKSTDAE", "sequence (P35244 whole entry, chain 4 of 3)": "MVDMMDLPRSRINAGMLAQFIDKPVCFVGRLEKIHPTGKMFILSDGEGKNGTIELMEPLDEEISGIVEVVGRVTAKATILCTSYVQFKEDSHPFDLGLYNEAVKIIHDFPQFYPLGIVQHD", "assay": "EMSA; PrimPol added to preformed RPA:DNA; 1 mM Mn2+, ATP, dNTPs, 8 C; EMSA: 40 mM HEPES pH 7.0, 50 mM KCl, 1 mM DTT, 5% glycerol, 0.1 mg/ml BSA, 1 mM MnCl2, 300 nM DNA, 24 C 20 min then ice (RPA assays: 50 nM DNA, 25 nM RPA, 8 C); 5% native PAGE, 0.5x Tris-glycine pH 8.3, 4 C", "details": "protein: recombinant;recombinant; tags: N-terminal SUMO-HIS10;; copies: 1;1;1;1; label: 32P"}}}
{"binder": "B1", "values": [{"measurement": "Kd", "setting": "[1]", "result": "90 ± 10", "unit": "nM"}, {"measurement": "Kd", "setting": "PrimPol WT [2]", "result": "490 ± 130", "unit": "nM"}]}
{"binder": "AAAAAAAAAACCTGAAAAAAAAAA (ssDNA)", "note": "[Cy5-Acctg24]", "values": [{"measurement": "binding result", "setting": "[3]; label: 5' Cy5", "result": "no binding"}, {"measurement": "binding result", "setting": "PrimPol363-560 (CTD)", "result": "no binding"}, {"measurement": "binding result", "setting": "PrimPol1-363 (NTD)", "result": "binds"}]}
{"binder": "B2", "values": [{"measurement": "binding result", "setting": "[4]", "result": "binds"}, {"measurement": "binding result", "setting": "PrimPol WT [5]", "result": "binds"}, {"measurement": "binding result", "setting": "PrimPol WT;RPA", "result": "binds"}]}
{"binder": "B3", "values": [{"measurement": "binding result", "setting": "[3]; label: 5' 32P on Primer-18, template 5' overhang 37 nt", "result": "binds"}]}
